Laboratory results from US20130315910A1 (Xencor, published 2013).

Assays:
Test in all cases: SPR
mFcγRIIb = target: T1, mFcγRIIb (Mus musculus, UniProt P08101)
T1 construct: extracellular region, C-terminal His- and GST-tag; also called mouse FcγRII
T1 sequence (receptor extracellular region, looked up): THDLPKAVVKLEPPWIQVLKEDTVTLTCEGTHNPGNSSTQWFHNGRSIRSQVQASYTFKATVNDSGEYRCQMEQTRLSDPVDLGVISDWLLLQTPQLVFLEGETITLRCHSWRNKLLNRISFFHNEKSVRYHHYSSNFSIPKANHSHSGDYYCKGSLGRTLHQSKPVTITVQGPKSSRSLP

mFcγRIV = target: T2, mFcγRIV
T2 construct: also called mouse FcγRIV; not shown: C-terminal His and GST tags (named only on our card)
T2 chain: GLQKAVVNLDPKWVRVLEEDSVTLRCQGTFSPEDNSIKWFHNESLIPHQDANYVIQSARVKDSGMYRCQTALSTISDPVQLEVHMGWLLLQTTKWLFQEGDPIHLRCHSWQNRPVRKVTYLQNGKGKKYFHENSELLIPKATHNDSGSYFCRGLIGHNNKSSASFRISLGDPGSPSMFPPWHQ

cynoFcγRIIb = target: T3, cynoFcγRIIb (Macaca fascicularis, UniProt A0A140HDP4)
T3 construct: extracellular region, C-terminal His- and GST-tag; also called cynomolgus monkey FcγRIIb
T3 sequence (receptor extracellular region): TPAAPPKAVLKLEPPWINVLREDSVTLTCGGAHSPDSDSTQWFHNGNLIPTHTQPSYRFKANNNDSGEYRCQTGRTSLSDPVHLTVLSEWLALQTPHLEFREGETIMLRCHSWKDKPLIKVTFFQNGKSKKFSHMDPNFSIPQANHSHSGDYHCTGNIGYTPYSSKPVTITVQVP

cynoFcγRIIIa = target: T4, cynoFcγRIIIa (Macaca fascicularis, UniProt Q8SPW2)
T4 construct: extracellular region, C-terminal His- and GST-tag; also called cynomolgus monkey FcγRIIIa
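Further: fold improvement over WT IgG1 so higher means slower dissociation than WT.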

T4 sequence (Q8SPW2 17-208): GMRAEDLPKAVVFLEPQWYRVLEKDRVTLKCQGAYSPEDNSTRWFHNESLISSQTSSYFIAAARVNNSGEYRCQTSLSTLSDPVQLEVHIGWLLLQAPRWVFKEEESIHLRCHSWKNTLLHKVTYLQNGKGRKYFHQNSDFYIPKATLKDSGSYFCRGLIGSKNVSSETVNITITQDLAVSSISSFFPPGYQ

B1: anti-CD19 antibody HuAM4G7 IgG1 S267E (antibody)
heavy: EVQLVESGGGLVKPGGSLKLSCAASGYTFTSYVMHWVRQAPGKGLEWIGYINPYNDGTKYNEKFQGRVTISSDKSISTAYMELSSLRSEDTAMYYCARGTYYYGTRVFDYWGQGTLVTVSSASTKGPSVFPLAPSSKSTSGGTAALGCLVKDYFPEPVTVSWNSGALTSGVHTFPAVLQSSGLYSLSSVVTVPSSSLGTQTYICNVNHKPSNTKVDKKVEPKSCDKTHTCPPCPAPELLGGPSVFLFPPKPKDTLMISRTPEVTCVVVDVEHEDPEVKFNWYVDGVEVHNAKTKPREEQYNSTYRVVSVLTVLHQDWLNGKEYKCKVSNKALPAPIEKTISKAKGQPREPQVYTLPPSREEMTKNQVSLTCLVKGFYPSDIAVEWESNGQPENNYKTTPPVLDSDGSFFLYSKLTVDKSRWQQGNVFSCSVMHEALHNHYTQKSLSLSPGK
light: DIVMTQSPATLSLSPGERATLSCRSSKSLQNVNGNTYLYWFQQKPGQSPQLLIYRMSNLNSGVPDRFSGSGSGTEFTLTISSLEPEDFAVYYCMQHLEYPITFGAGTKLEIKRTVAAPSVFIFPPSDEQLKSGTASVVCLLNNFYPREAKVQWKVDNALQSGNSQESVTEQDSKDSTYSLSSTLTLSKADYEKHKVYACEVTHQGLSSPVTKSFNRGEC
notes: Positions in EU numbering; copies: 2 + 2
mFcγRIIb
  Fold vs WT IgG1 (off-rate): 1.44 fold
mFcγRIV
  Fold vs WT IgG1 (off-rate): 0.77 fold
cynoFcγRIIb
  Fold vs WT IgG1 (off-rate): 1.09 fold
cynoFcγRIIIa
  Fold vs WT IgG1 (off-rate): 0.515 fold
